# B1: GST-14-3-3β fusion protein (natural protein, human, UniProt P31946 1-246, looked up)
# chain: MTMDKSELVQKAKLAEQAERYDDMAAAMKAVTEQGHELSNEERNLLSVAYKNVVGARRSSWRVISSIEQKTERNEKKQQMGKEYREKIEAELQDICNDVLELLDKYLIPNATQPESKVFYLKMKGDYFRYLSEVASGDNKQTTVSNSQQAYQEAFEISKKEMQPTHPIRLGLALNFSVFYYEILNSPEKACSLAKTAFDEAIAELDTLNEESYKDSTLIMQLLRDNLTLWTSENQGDEGDAGEGEN
# modifications: DIG-labelled (DIG-NHS) in the overlay assay only
# notes: 14-3-3β, human cDNA (from Dr Ken Inoki) subcloned into pGEX-4T-1; source: eluted with glutathione for the overlay
# Target: T1, HA-PDE3B (human) phosphorylated by co-expressed Flag-TBK1 (human, UniProt Q13370 1-1112, phosphorylated by co-expressed TBK1; serines 22, 299, 318, 381, 463, 467 and 503 found phosphorylated by LC-MS/MS (HA-PDE3B from Cos-1 cells))
# T1 construct: Phosphodiesterase 3B (PDE3B), human cDNA (from Dr Morris Birnbaum); The phosphorylation sites were mapped in Cos-1 cells; also called phosphorylated PDE3B; the wild-type protein; source: HEK293T, transfected together with Flag-TBK1, in lysate; immunoprecipitated for the overlay
# Test: pull-down; GST or GST-14-3-3β on glutathione beads incubated 1.5 hr at 4°C with cleared lysates of HEK293T cells co-expressing HA-PDE3B and Flag-TBK1 or K38A; PD buffer 15 mM Tris pH 7.5, 150 mM NaCl, 0.5% NP-40, 1 mM DTT
# Settings: one partner purified
# T1 sequence (Q13370 whole entry): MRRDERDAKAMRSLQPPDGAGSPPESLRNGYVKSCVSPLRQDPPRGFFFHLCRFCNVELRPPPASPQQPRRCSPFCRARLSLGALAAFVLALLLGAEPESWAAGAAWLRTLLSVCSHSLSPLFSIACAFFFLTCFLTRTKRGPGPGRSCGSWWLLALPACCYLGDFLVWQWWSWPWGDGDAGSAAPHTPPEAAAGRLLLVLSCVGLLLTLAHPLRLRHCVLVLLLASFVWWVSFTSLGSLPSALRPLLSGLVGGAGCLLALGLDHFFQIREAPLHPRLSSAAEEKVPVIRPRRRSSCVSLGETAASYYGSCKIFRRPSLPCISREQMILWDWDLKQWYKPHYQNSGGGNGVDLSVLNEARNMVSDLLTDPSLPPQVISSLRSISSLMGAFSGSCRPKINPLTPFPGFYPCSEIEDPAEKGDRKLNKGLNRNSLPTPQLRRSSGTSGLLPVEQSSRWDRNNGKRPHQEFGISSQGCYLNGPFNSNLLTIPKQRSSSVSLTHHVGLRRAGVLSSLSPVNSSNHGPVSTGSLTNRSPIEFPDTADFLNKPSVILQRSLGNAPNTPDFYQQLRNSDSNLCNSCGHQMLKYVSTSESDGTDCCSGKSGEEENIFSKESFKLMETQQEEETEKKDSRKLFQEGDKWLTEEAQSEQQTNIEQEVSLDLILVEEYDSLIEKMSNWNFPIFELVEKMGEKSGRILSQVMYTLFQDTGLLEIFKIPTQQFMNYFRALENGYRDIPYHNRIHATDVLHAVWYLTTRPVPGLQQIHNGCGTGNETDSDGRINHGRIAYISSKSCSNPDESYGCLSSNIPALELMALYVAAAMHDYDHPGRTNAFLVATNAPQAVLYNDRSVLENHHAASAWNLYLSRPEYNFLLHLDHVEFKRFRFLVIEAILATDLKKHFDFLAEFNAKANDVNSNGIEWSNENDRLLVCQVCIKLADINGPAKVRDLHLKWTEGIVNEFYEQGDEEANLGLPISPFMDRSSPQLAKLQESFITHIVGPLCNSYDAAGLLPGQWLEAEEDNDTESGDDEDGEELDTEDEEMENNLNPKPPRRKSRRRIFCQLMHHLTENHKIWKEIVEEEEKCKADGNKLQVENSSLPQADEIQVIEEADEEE
binder,measurement,value
B1,binding result,binds

# From paper PMC3869376, “Inflammation produces catecholamine resistance in obesity via activation of PDE3B by the protein kinases IKKε and TBK1” (eLife, 2013)
